Source: patent US6046014

Experiments:
[1] = biological target: streptavidin-agarose (immobilized streptavidin) (Streptomyces avidinii) (UniProt P22629); assay: affinity chromatography: ammonium sulfate fraction passed over streptavidin-agarose
[2] = biological target: streptavidin-agarose (immobilized streptavidin) (Streptomyces avidinii) (UniProt P22629); assay: affinity chromatography on streptavidin-agarose

efficiency of binding [1]: 86%
binding capacity (µg ASPHYA-ST per milliliter bed volume) [2]: 200
Substance: Strep-tagged oat phytochrome A (ASPHYA-ST)
